{
  "source": "paper PMC4441544",
  "target": "voltage-dependent anion channel (VDAC) (rat (endogenous in rat cortex)) (UniProt Q9Z2L0)",
  "sequence (Q9Z2L0 whole entry, the tested form may be a part)": "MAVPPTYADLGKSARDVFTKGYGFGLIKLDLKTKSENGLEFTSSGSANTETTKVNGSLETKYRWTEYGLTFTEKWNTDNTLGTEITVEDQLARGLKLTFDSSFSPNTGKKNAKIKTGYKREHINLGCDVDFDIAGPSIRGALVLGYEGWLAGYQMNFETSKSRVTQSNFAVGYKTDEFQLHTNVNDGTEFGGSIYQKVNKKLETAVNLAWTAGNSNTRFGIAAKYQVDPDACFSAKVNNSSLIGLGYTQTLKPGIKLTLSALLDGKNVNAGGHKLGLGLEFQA",
  "experiment": "co-IP",
  "data": [
    {"substance": "Hexokinase II VDAC binding domain peptide (fused to Antennapedia homeo-domain)", "values": [
      {"measurement": "percent reduction of HK1-VDAC binding at 100 µM peptide (lower VDAC band, VDAC3)", "result": 66.1, "unit": "%"},
      {"measurement": "percent reduction of HK1-VDAC binding at 100 µM peptide (total VDAC)", "result": 50.4, "unit": "%"}
    ]}
  ]
}
